Patent publication US20110135636A1 (SYMPHOGEN A S, published 2011)

Columns and labels:
[1] = biological target: T1, recombinant human EGFR extracellular domain with 6xHis (human, UniProt P00533 25-645); assay: SPR competition, EGFR ECD first saturated with mix N=6 1261+1347+992+1024+1030+1361
T1 construct: In-house produced; also called 6xHis EGFR ECD; soluble human EGFR ECD; not shown: 6xHis tag
Method: (§1) SPR analysis was performed on a Biacore 3000 machine containing four flow cells. A CM5 Biacore chip was conjugated with 10,000 Resonance units (Ru) polyclonal anti-His antibody to flow cells 1-4 according to the manufacturer's instructions. […] Immediately after antigen injection the maximal binding of the Anti-EGFR mAb without competition was established in each flow cell during a reference run. Briefly 5 μl antibody at a concentration of 40 μg/ml was injected over all flow cells with captured EGFR followed by stripping of the antibody/antigen complex with a low pH acid wash (10 sec. contact time with 10 mM Glycine-HCl, pH2). After the determination of Anti-EGFR antibody maximal binding to each flow cell, a competition run was performed during the same Biacore cycle. Flow cells were first saturated with EGFR ECD antigen followed by injection of different reference antibodies or Anti-EGFR antibodies into separate flow cells using the same antigen saturating conditions as outlined above. This step was immediately followed by a second injection of Anti-EGFR antibody over the flow cell saturated with EGFR antigen and competition antibody to minimize the dissociation of either antigen or blocking antibody. Then the antibody/antigen complexes were stripped off with a low pH acid wash (10 sec. contact time with 10 mM Glycine-HCl, pH 2) and the whole cycle beginning with the reference run was repeated with a new Anti-EGFR antibody. The degree of inhibition of tested Anti-EGFR antibodies were determined by comparing the Ru max value of the individual Anti-EGFR antibody before and after competition by introduction of report points recorded two seconds before and after injection of each sample.

[2] = biological target: T2, wild type full length EGFR purified from A431 cells (human, UniProt P00533 25-1210); assay: competition ELISA, competitor Ab-5; parameters: concentration or dose not given beside the values
T2 construct: mature; Bought; coated on ELISA wells; also called full length EGFR receptor antigen; Sigma E3641
Method: The ELISA was adapted from the descriptions published in Ditzel et al, 1995, The Journal of Immunology, Vol 154, Issue 2 893-906.
An epitope blocking ELISA was performed by diluting full length EGFR receptor antigen to 0.5 μg/ml in PBS; and coating 50 μl/ELISA well overnight at 4° C. […] Finally wells were washed four times with PBS-T and plates were developed by adding 50 μl/well TMB and read at 620 nm every 5-15-30 min. The degree of inhibition was calculated from the formula: % inhibition=(1−(OD competition/OD no competition (PBS)))×100.

[3] = biological target: T3, full length Cynomolgus EGFR expressed on CHO cells (Cynomolgus monkey (Macaca fascicularis), UniProt P55245 25-1210 (rhesus entry)); assay: FACS on CHO cells transfected with full length Cynomolgus EGFR
T3 construct: The entry was cloned including the signal peptide; also called Cynomolgus full length EGFR
Method: Bound antibody was detected with a PE labelled goat F(ab′)₂ anti-human IgG FC. Gating was performed on uniform cells (SCC/FCS properties) expressing EGFR. Binding is expressed as % maximal antibody binding at 1 nM concentration.
Briefly quantitative FACS analysis was performed on a BD FACS array Bioanalyzer System to determine the number of EGFR molecules expressed on the surface of CHO cells transfected with either Human or Cynomolgus full length EGFR. […] Antibodies were incubated with cells for 14 hours on a shaker, to promote full antigen saturation at all antibody concentrations tested, while FACS buffer was added 0.02% NaN₃ and temperature kept at 4° C. to prevent receptor internalization. After incubation, cells were pelleted at 1200 RPM for 5 min at 4° C. and resuspended in 200 ul FACS buffer. Next cells were stained with a secondary Goat F(ab′)₂ anti-Human IgG FcGamma PE diluted 1:500 and incubated for 30 min at 4° C. on a shaker. Finally cells were washed twice in FACS buffer and analyzed on a BD FACS array Bioanalyzer System with gating on EGFR expressing CHO cells displaying uniform forward/side scatter properties.

[4] = biological target: T1, recombinant human EGFR extracellular …; assay: SPR, reference cycle of the run with mix N=6
Method: as §1

[5] = biological target: T4, full length human EGFR expressed on the cell surface (human, UniProt P00533 25-1210); assay: cell ELISA, IgG titrated on paraformaldehyde-fixed A431-NS cells
T4 construct: whole, on cells; also called EGFR on A431-NS cells; EGFR on HN5 cells
Method: Cell ELISA: The relative binding affinities defined as the molar concentration giving the half maximal OD (ED50) were determined by antibody titrations on A431-NS cells. Briefly, 10,000 A431-NS cells were grown in 96 well ELISA plates containing DMEM with added 0.5% FCS and 1% P/S at 37° C., 5% CO₂ overnight. […] Then 50 μl of a secondary Goat-anti-Human (Fab specific) HRP conjugate diluted 1:5000 in DMEM containing 1% BSA was added and incubated on ice for 30 min. Finally wells were washed four times with PBS and plates developed by adding 50 μl/well TMB Plus substrate and read at 620 nm every 5-15-30 min. After incubation with substrate the reaction was stopped by addition of 1 M H₂SO₄ and absorbance read at 450 nm. The functional affinity expressed as ED50 values were calculated by subtraction of the average background binding with secondary reagent only, followed by normalization of the binding curves by plotting % maximal binding relative to each antibody tested.

[6] = biological target: T4, full length human EGFR expressed on the …; assay: cell ELISA, IgG titrated on unfixed A431-NS cells
Method: Cell ELISA: The ELISA was performed essentially as described in example 15 with modifications. Cells were left unfixed to allow conformational EGFR flexibility after antibody additions. Briefly, 10,000 A431-NS cells were grown in 96 well ELISA plates containing DMEM with added 0.5% FCS and 1% P/S at 37° C., 5% CO₂ overnight. […] 25 μl DMEM containing 1% BSA was added to wells used for testing of IgG antibodies without added Fab fragments. […] Next, wells were washed four times with PBS and 50 μl of a secondary monoclonal Mouse-anti-Human (Fc specific) HRP conjugate diluted 1:5000 in DMEM containing 1% BSA was added and incubated on ice for 30 min. Finally wells were washed four times with PBS and plates developed by adding 50 μl/well TMB substrate and read at 620 nm every 5-15-30 min. After incubation with substrate the reaction was stopped by addition of 1 M H₂SO₄ and absorbance read at 450 nm. The functional affinity expressed as ED50 values were calculated by subtraction of the average background binding with secondary reagent only, followed by normalization of the binding curves by plotting % maximal binding relative to each antibody tested.
Investigations of antibody induced binding enhancements were determined by concurrent ELISA binding studies, employing same secondary antibody reagent and incubation times.

% inhibition [1]: 113% | Rumax competition cycle [1]: -14 Ru | % inhibition [2]: 12% | EC50 (read off the curve) [3]: ~8 pM | Rumax reference cycle [4]: 110 Ru | Log ED50 [5]: -0.49 | Log ED50 [6]: -0.01
B1: antibody 1024 (antibody, human IgG1, kappa, V domains shown)
VH: QVQLQQPGAELVEPGGSVKLSCKASGYTFTSHWMHWVKQRPGQGLEWIGEINPSSGRNNYNEKFKSKATLTVDKSSSTAYMQFSSLTSEDSAVYYCVRYYGYDEAMDYWGQGTSVTVSS
VL: DIVMTQAAFSNPVTLGTSASISCRSSKSLLHSNGITYLYWYLQKPGQSPQLLIYQMSNLASGVPDRFSSSGSGTDFTLRISRVEAEDVGVYYCAQNLELPYTFGGGTKLEIKR
notes: Chimeric IgG1 kappa
